Blank lines part the entries; values can stand above or below the molecule they belong to.
Legend:
[1] = biological target: pL αSyn71–82 (protein L W47Y I60F N14C scaffold with αSyn residues 71–82 inserted in the extended β3‐β4 loop); test: native MS; ESI–MS of 100 μM pL constructs in 100 mM ammonium acetate pH 6.8, equal volumes mixed for heterodimers; after quiescent incubation for 4 h at 25°C
[2] = biological target: pL αSyn71–82 (protein L W47Y I60F N14C scaffold with αSyn residues 71–82 inserted in the extended β3‐β4 loop); test: dynamic force spectroscopy (AFM); pL αSyn71–82 on AFM tip and surface; retraction speeds 200 to 5000 nm s^-1; Bell‐Evans fit, dissociation rate constant in the absence of force; 20 mM HEPES pH 7.5, room temperature
[3] = biological target: pL αSyn71–82 (protein L W47Y I60F N14C scaffold with αSyn residues 71–82 inserted in the extended β3‐β4 loop); test: single molecule force spectroscopy (AFM); pL constructs coupled through Cys14 to maleimide‐PEG on both the AFM tip and the surface; retraction 1 μm s^-1 (1000 nm s^-1), approach 2 µm s^-1; 20 mM HEPES pH 7.5, room temperature; triplicate
[4] = biological target: pL γSyn71–82 (protein L W47Y I60F N14C scaffold with γSyn residues 71–82 inserted in the extended β3‐β4 loop); test: native MS; ESI–MS of 100 μM pL constructs in 100 mM ammonium acetate pH 6.8, equal volumes mixed for heterodimers; after quiescent incubation for 4 h at 25°C
[5] = biological target: T1, αSyn71–82 synthetic peptide; test: cell-based or functional assay
T1 peptide: Ac-VTGVTAVAQKTV-NH2

[6] = biological target: the molecule itself; test: native MS; ESI–IMS–MS of synthetic peptides alone and in a 1:1 mixture; 100 μM final in 100 mM ammonium acetate pH 6.8
[7] = biological target: T2, αSyn71–82 synthetic peptide; test: as above; details: remark: other sources report otherwise
T2 chain: VTGVTAVAQKTV

Molecule: pL αSyn71–82 (protein L W47Y I60F N14C scaffold with αSyn residues 71–82 inserted in the extended β3‐β4 loop)
stoichiometry N [1]: < 3
koff [2]: 0.18 s⁻¹
lifetime [2]: 6 s
hit rate [3]: 4%
rupture force (F R) [3]: 57 pN

Molecule: pL γSyn71–82 (protein L W47Y I60F N14C scaffold with γSyn residues 71–82 inserted in the extended β3‐β4 loop)
stoichiometry N [4]: 2
hit rate (frequency of detection) [3]: 3.2%
rupture force (F R) [3]: 53 pN

increase in lag‐time of ThT fluorescence of the 1:1 peptide mixture compared with αSyn71–82 alone [5]: 2.5 fold
increase in lag‐time of ThT fluorescence of the 1:1 peptide mixture compared with γSyn71–82 alone [5]: 5.7 fold
B1: γSyn71–82 synthetic peptide (peptide)
peptide: Ac-VSSVNTVATKTV-NH2
notes: γ‐synuclein, central NAC region, residues 71–82; also called central NAC region of γSyn; source: bought: Genscript, synthetic peptide, >99% purity
stoichiometry N [6]: ≤ 14

stoichiometry N [7]: < 14
B2: αSyn71–82 synthetic peptide (peptide)
peptide: Ac-VTGVTAVAQKTV-NH2

Source: publication PMC6032367, “A peptide‐display protein scaffold to facilitate single molecule force studies of aggregation‐prone peptides” (Protein Science : A Publication of the Protein Society, 2018)
